From the RNAGym collection of RNA variant scans (doi:10.1101/gr.219683.116)

B1: mRNA-splicing (parent)
chain: AGUUGCUGCUGGGAGCUCCAGCACAGUGAAAUGGACAGAAGGGCAGAGCAA

Variants of: B1
Experiment: exon inclusion enrichment index; higher = more inclusion; WT1 exon 5 minigene, HEK293
With G5A C6U U7A G8U C9A G46A A47C the “exon inclusion enrichment index” value was 0.232.
With G5A C6U U7A G8U C9A G46A A47G the “exon inclusion enrichment index” value was 0.0237.
In the case of G5A C6U U7A G8U C9A G46A A47U, the “exon inclusion enrichment index” value is reported as 0.0808.
In the case of G5A C6U U7A G8U C9A G46C A47C, the “exon inclusion enrichment index” value is reported as 0.144.
For G5A C6U U7A G8U C9A G46C A47U, the “exon inclusion enrichment index” value was 0.0869.
With G5A C6U U7A G8U C9A G46C A47G the “exon inclusion enrichment index” value was 0.159.
For G5A C6U U7A G8U C9A U17A C18G, the “exon inclusion enrichment index” value was 0.0258.
With G5A C6U U7A G8U C9A U17A C18A the “exon inclusion enrichment index” value was 0.0198.
For G5A C6U U7A G8U C9A U17A C18U, the “exon inclusion enrichment index” value was 0.0116.
With G5A C6U U7A G8U C9A U32C the “exon inclusion enrichment index” value was 0.14.
In the case of G5A C6U U7A G8U C9A U32G, the “exon inclusion enrichment index” value is reported as 0.0013.
In the case of G5A C6U U7A G8U C9A U32A, the “exon inclusion enrichment index” value is reported as 0.0571.
With G5A C6U U7C G8U C9A the “exon inclusion enrichment index” value was 0.249.
With G5A C6U U7A G8U C9A G43U C44A the “exon inclusion enrichment index” value was 0.00905.
In the case of G5A C6U U7A G8U C9A G43U C44U, the “exon inclusion enrichment index” value is reported as 0.00909.
With G5A C6U U7A G8U C9A G43U C44G the “exon inclusion enrichment index” value was 0.073.
In the case of G5A G8A U10C, the “exon inclusion enrichment index” value is reported as 1.77.
With G5A C6U U7A G8U C9A U27C G28C the “exon inclusion enrichment index” value was 0.1.
With G5A C6U U7A G8U C9A U27C G28U the “exon inclusion enrichment index” value was 0.0508.
With G5A C6U U7A G8U C9A U27C G28A the “exon inclusion enrichment index” value was 0.0919.
In the case of G5A G8C C9U U10C, the “exon inclusion enrichment index” value is reported as 1.05.
With G5A C6U U7A G8U C9A U17G C18G the “exon inclusion enrichment index” value was 0.0481.
In the case of G5A C6U U7A G8U C9A U17G C18U, the “exon inclusion enrichment index” value is reported as 0.0294.
In the case of G5A C6U U7A G8U C9A U17G C18A, the “exon inclusion enrichment index” value is reported as 0.0489.
With G5A C6U U7A G8U C9A G41U G42U the “exon inclusion enrichment index” value was 0.0785.
For G5A C6U U7A G8U C9A G41U G42A, the “exon inclusion enrichment index” value was 0.0133.
For G5A C6U U7A G8U C9A G41U G42C, the “exon inclusion enrichment index” value was 0.226.
For G5A C6U U7A G8U C9U, the “exon inclusion enrichment index” value was 0.0721.
In the case of G5A C6U U7A G8U C9G, the “exon inclusion enrichment index” value is reported as 0.0579.
With G5A C6U U7C G8C C9A the “exon inclusion enrichment index” value was 1.04.
For G5A C6U U7A G8U C9A U32G G33C, the “exon inclusion enrichment index” value was 0.0522.
With G5A C6U U7A G8U C9A U32G G33U the “exon inclusion enrichment index” value was 0.0122.
For G5A C6U U7A G8U C9A U32G G33A, the “exon inclusion enrichment index” value was 0.00894.
With G5A C6U U7A G8U C9A U17C C18A the “exon inclusion enrichment index” value was 0.0363.
With G5A C6U U7A G8U C9A U17C C18G the “exon inclusion enrichment index” value was 0.0591.
For G5A C6U U7A G8U C9A U17C C18U, the “exon inclusion enrichment index” value was 0.0327.
In the case of G5A C6U U7C G8A C9A, the “exon inclusion enrichment index” value is reported as 0.442.
In the case of G5A U7C G8A U10C A14C, the “exon inclusion enrichment index” value is reported as 1.69.
For G5A U7C G8A U10C A14G, the “exon inclusion enrichment index” value was 1.38.
In the case of G5A G8U C9A, the “exon inclusion enrichment index” value is reported as 0.187.
In the case of G5A G8U C9U, the “exon inclusion enrichment index” value is reported as 0.166.
With G5A U7C C9A U10C the “exon inclusion enrichment index” value was 2.95.
For G5A C6U U7A G8U C9A G43A C44U, the “exon inclusion enrichment index” value was 0.072.
In the case of G5A C6U U7A G8U C9A G43A C44A, the “exon inclusion enrichment index” value is reported as 0.441.
For G5A C6U U7A G8U C9A G43A C44G, the “exon inclusion enrichment index” value was 0.476.
With G5A C6U U7A G8U C9A G41C G42C the “exon inclusion enrichment index” value was 0.417.
With G5A C6U U7A G8U C9A G41C G42A the “exon inclusion enrichment index” value was 0.139.
In the case of G5A C6U U7A G8U C9A G41C G42U, the “exon inclusion enrichment index” value is reported as 0.445.
For G5A U7A G8A U10C, the “exon inclusion enrichment index” value was 1.72.
For G5A U7C G8A C9A, the “exon inclusion enrichment index” value was 0.923.
In the case of G5A U7C G8A C9G, the “exon inclusion enrichment index” value is reported as 0.872.
With G5A U7C G8A C9U the “exon inclusion enrichment index” value was 0.959.
In the case of G5A U7C C9U U10C, the “exon inclusion enrichment index” value is reported as 2.63.
With G5A U7C G8A U10C A14C G15C the “exon inclusion enrichment index” value was 0.761.
For G5A U7C G8A U10C A14C G15A, the “exon inclusion enrichment index” value was 0.731.
With G5A U7C G8A U10C A14C G15U the “exon inclusion enrichment index” value was 1.
In the case of G5A G8U U10C, the “exon inclusion enrichment index” value is reported as 1.78.
In the case of G5A U7A C9A U10A, the “exon inclusion enrichment index” value is reported as 0.318.
With G5A C6U U7C C9A U10C the “exon inclusion enrichment index” value was 2.91.
For G5A C6U U7A G8U C9A U27A G28U, the “exon inclusion enrichment index” value was 0.0109.
In the case of G5A C6U U7A G8U C9A U27A G28C, the “exon inclusion enrichment index” value is reported as 0.126.
For G5A C6U U7A G8U C9A U27A G28A, the “exon inclusion enrichment index” value was 0.065.
In the case of G5A C6U U7A G8U C9A G42C G43C, the “exon inclusion enrichment index” value is reported as 0.451.
For G5A C6U U7A G8U C9A G42C G43U, the “exon inclusion enrichment index” value was 0.352.
In the case of G5A C6U U7A G8U C9A G42C G43A, the “exon inclusion enrichment index” value is reported as 0.295.
In the case of G5A C6U U7A G8U C9A U10G, the “exon inclusion enrichment index” value is reported as 0.00356.
In the case of G5A C6U U7A G8U C9A U10C, the “exon inclusion enrichment index” value is reported as 0.4.
In the case of G5A C6U U7A G8U C9A U10A, the “exon inclusion enrichment index” value is reported as 0.0162.
With G5A C6U U7A G8U C9A U27A the “exon inclusion enrichment index” value was 0.0803.
For G5A C6U U7A G8U C9A U27G, the “exon inclusion enrichment index” value was 0.0103.
For G5A C6U U7A G8U C9A U27C, the “exon inclusion enrichment index” value was 0.399.
In the case of G5A C6U U7A G8U C9A G42U G43A, the “exon inclusion enrichment index” value is reported as 0.282.
For G5A C6U U7A G8U C9A G42U G43C, the “exon inclusion enrichment index” value was 0.0628.
In the case of G5A C6U U7A G8U C9A G42U G43U, the “exon inclusion enrichment index” value is reported as 0.23.
With G5A C6U U7A G8U C9A G43C the “exon inclusion enrichment index” value was 0.15.
In the case of G5A C6U U7A G8U C9A G43U, the “exon inclusion enrichment index” value is reported as 0.0904.
For G5A C6U U7A G8U C9A G43A, the “exon inclusion enrichment index” value was 0.454.
For G5A C9A, the “exon inclusion enrichment index” value was 0.851.
For G5A C6U U7A G8U C9A G43C C44G, the “exon inclusion enrichment index” value was 1.01.
In the case of G5A C6U U7A G8U C9A G43C C44U, the “exon inclusion enrichment index” value is reported as 0.033.
In the case of G5A C6U U7A G8U C9A G43C C44A, the “exon inclusion enrichment index” value is reported as 0.403.
In the case of G5A U7A C9A, the “exon inclusion enrichment index” value is reported as 0.664.
For G5A C6U U7G G8A U10C, the “exon inclusion enrichment index” value was 1.97.
With G5A C6U U7C C9A the “exon inclusion enrichment index” value was 1.32.
